Reference: patent US20210032365A1 (Chugai, published 2021)
Residue numbers refer to the chain shown, from its start.

B1: C1_IPN009VH2-SG4GK/IPN009VK3-SK1 (antibody, human IgG4 S228P, kappa)
heavy: not shown
light: QIVLTQSPATLSLSPGERATLSCTASSSVSSSYLHWYQQKPGKAPKLWIYSTSNLASGVPSRFSGSGSGTDYTLTISSLQPEDFATYYCHQYYRLPPITFGQGTKLEIKRTVAAPSVFIFPPSDEQLKSGTASVVCLLNNFYPREAKVQWKVDNALQSGNSQESVTEQDSKDSTYSLSSTLTLSKADYEKHKVYACEVTHQGLSSPVTKSFNRGEC
notes: parent antibody; variable regions as described in WO2016164358; also called IPN009VH2/IPN009VK3; IPN09VH2/IPN09VK3
B2: C1_IPN009VH2-SG4GK/IPN009VK3-SK1 (antibody, human IgG4 S228P, kappa)
heavy: not shown
light: B1 light
notes: Parent antibody; also called IPN009VH2/IPN009VK3; IPN09VH2/IPN09VK3
B3: C1_IPN009VH2-SG4GK/IPN93L0021-SK1 (antibody, human IgG4 S228P, kappa, name in Kabat numbering)
heavy: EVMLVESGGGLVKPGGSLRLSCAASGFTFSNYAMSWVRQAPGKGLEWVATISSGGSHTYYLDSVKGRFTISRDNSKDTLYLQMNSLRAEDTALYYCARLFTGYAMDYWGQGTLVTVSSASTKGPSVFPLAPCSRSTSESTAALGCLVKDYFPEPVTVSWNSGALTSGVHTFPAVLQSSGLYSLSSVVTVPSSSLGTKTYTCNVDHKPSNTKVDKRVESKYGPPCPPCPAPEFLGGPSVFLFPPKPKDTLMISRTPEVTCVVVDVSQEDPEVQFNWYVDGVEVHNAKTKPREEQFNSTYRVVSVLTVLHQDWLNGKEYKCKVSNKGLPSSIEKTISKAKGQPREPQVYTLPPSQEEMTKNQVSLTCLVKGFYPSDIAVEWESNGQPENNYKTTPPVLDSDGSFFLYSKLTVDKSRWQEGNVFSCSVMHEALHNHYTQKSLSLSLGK
light: B1 light with Y93H
notes: also called IPN009VH2/IPN93L0021
B4: C1_IPN92H0307-SG4GK/IPN93L0058-SK1 (antibody, human IgG4 S228P, kappa)
heavy: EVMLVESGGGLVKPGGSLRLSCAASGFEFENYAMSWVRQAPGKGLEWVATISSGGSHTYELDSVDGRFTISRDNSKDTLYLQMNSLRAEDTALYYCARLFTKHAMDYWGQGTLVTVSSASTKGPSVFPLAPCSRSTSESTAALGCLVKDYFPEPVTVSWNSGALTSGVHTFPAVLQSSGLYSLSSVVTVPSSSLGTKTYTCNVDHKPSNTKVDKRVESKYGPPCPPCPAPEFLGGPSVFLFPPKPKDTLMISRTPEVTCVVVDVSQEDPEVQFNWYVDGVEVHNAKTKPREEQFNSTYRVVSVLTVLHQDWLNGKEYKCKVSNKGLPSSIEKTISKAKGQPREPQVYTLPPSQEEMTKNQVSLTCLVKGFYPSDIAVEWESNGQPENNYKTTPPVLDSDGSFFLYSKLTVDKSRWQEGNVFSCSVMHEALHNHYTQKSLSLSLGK
light: B1 light with S28E, P96H
notes: also called IPN92H0307/IPN93L0058

Columns and labels:
human C1s [1] = target: T1, human C1s (human, UniProt P09871 16-688); assay: SPR, Ab captured; pH 5.8, 3 uM Ca
T1 construct: also called hC1s; serum-derived human C1s (CompTech)
T1 sequence: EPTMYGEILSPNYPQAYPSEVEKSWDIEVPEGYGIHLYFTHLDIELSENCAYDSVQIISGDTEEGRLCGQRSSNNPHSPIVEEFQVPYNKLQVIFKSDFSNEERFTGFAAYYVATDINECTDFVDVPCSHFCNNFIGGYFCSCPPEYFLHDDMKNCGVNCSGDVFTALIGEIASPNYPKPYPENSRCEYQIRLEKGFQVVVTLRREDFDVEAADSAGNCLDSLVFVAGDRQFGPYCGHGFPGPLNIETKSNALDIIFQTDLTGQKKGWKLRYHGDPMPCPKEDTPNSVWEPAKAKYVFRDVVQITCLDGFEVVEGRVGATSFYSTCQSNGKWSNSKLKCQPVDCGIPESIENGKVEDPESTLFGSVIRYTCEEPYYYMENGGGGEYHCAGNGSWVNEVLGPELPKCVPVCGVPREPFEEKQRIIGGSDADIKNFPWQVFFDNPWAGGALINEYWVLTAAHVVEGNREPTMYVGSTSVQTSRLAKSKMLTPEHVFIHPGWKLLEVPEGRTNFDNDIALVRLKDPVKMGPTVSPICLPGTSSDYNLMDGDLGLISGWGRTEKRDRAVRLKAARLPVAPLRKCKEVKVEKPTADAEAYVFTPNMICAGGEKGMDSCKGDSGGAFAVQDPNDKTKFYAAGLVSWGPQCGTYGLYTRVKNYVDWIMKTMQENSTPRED
Protocol: (§1) All variants were transiently expressed and purified by the method described above. The binding affinity of each histidine-substituted variant at pH 7.4 and pH 5.8 was determined at 37 degrees C. using Biacore T200 instrument (GE Healthcare). Recombinant Protein A/G (Pierce) was immobilized onto all flow cells of a CM4 sensor chip using an amine coupling kit (GE Healthcare). Antibodies and analytes were prepared in 7(+) buffer (20 mM ACES, 150 mM NaCl, 1.2 mM CaCl2, 0.05% Tween 20, 0.005% NaN3, pH 7.4), 5(+) buffer (20 mM ACES, 150 mM NaCl, 1.2 mM CaCl2, 0.05% Tween 20, 0.005% NaN3, pH 5.8), or 5(−) buffer (20 mM ACES, 150 mM NaCl, 3 micro M CaCl2, 0.05% Tween 20, 0.005% NaN3, pH 5.8). Each antibody was captured onto the sensor surface by protein A/G. Antibody capture levels were aimed at 200 resonance unit (RU). Serum-derived human C1s (CompTech) or recombinant C1s prepared in EXAMPLE 1 was injected at 50 nM, followed by dissociation. The sensor surface was regenerated in each cycle with 10 mM Glycine-HCl, pH 1.5. […] The ratio of KD 5.8+ to KD 7.4+(“KD 5+/7+”) and that of KD 5.8− to KD 7.4+(“KD 5−/7+”) were calculated. When the KD 5+/7+ or KD 5−/7+ of a variant is larger than that of the parent antibody IPN009VH2-SG4GK/IPN009VK3-SK1, that variant is considered to be “pH”- or “pH and Ca”-dependent, respectively. When binding response in 5(+) buffer and/or in 5(−) buffer of a variant is much lower than that of IPN09VH2/IPN009VK3, that variant is also considered as “pH”- and/or “pH and Ca”-dependent. Therefore, such mutations are effective to generate “pH”- and/or “pH and Ca”-dependent antibody. To further enhance “pH” and/or “pH and Ca” dependency, a combination of histidine mutations was conducted. Antibodies with combinations of histidine mutations were evaluated using Biacore by the method described above.

human C1s [2] = target: T1, human C1s; assay: SPR; KD pH 5.8 1.2 mM Ca / KD pH 7.4 1.2 mM Ca
Protocol: as §1

human C1s [3] = target: T1, human C1s; assay: SPR; KD pH 5.8 3 uM Ca / KD pH 7.4 1.2 mM Ca
Procedure, shortened: (§2)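 Protein A/G amine-coupled to CM4 chip; each variant captured to ~200 RU; 50 nM C1s injected, dissociation followed; surface regenerated with 10 mM glycine-HCl pH 1.5; all at 37 °C in 20 mM ACES buffers at pH 7.4 or 5.8 with 1.2 mM or 3 µM CaCl2.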

human C1s [4] = target: T1, human C1s; assay: SPR; KD pH 5.8 1.2 mM Ca / KD pH 7.4 1.2 mM Ca; remark: listed apart in the source
Procedure, shortened: as §2

human C1s [5] = target: T1, human C1s; assay: SPR, Ab captured; pH 5.8, 1.2 mM Ca
Procedure, shortened: as §2

human C1s [6] = target: T1, human C1s; assay: SPR, Ab captured; pH 5.8, 1.2 mM Ca; remark: listed apart in the source
Protocol: as §1

human C1s [7] = target: T1, human C1s; assay: SPR; KD pH 5.8 3 uM Ca / KD pH 7.4 1.2 mM Ca; remark: listed apart in the source
Protocol: as §1

human C1s [8] = target: T1, human C1s; assay: SPR, Ab captured; pH 7.4, 1.2 mM Ca
Procedure, shortened: (§3)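 Antibody captured on protein A/G (~200 RU) on Biacore T200 at 37C; serum-derived or recombinant human C1s injected at 50 nM, then dissociation. KD measured at pH 7.4 with 1.2 mM Ca and at pH 5.8 with 1.2 mM or 3 uM Ca; KD ratios pH 5.8/pH 7.4 calculated.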

human C1s [9] = target: T1, human C1s; assay: SPR, Ab captured; pH 7.4, 1.2 mM Ca; remark: listed apart in the source
Procedure, shortened: as §2

human C1s [10] = target: T1, human C1s; assay: SPR, Ab captured; pH 5.8, 3 uM Ca; remark: listed apart in the source
Protocol: as §1

human C1s [11] = target: T1, human C1s; assay: SPR, Ab captured; pH 7.4, 1.2 mM Ca; remark: listed apart in the source
Protocol: as §1

human C1s [12] = target: T2, human C1s (human, UniProt P09871 16-688); assay: SPR (Biacore T200, 37C), Ab captured on protein A/G; pH 7.4, 1.2 mM Ca
T2 construct: Analyte in the Biacore assays; also called hC1s; serum-derived human C1s (CompTech)
T2 sequence: T1 sequence
Protocol: as §1

human C1s [13] = target: T2, human C1s; assay: SPR (Biacore T200, 37C), Ab captured on protein A/G; pH 5.8, 1.2 mM Ca
Procedure, shortened: as §3

human C1s [14] = target: T2, human C1s; assay: SPR; KD at pH 5.8 (3 uM Ca) over KD at pH 7.4 (1.2 mM Ca)
Procedure, shortened: as §3

human C1s [15] = target: T2, human C1s; assay: SPR; KD at pH 5.8 (1.2 mM Ca) over KD at pH 7.4 (1.2 mM Ca)
Procedure, shortened: as §3

human C1s [16] = target: T2, human C1s; assay: SPR (Biacore T200, 37C), Ab captured on protein A/G; pH 5.8, 1.2 mM Ca; remark: listed apart in the source
Protocol: as §1

human C1s [17] = target: T2, human C1s; assay: SPR; KD at pH 5.8 (3 uM Ca) over KD at pH 7.4 (1.2 mM Ca); remark: listed apart in the source
Protocol: as §1

human C1s [18] = target: T2, human C1s; assay: SPR (Biacore T200, 37C), Ab captured on protein A/G; pH 5.8, 3 uM Ca
Protocol: as §1

human C1s [19] = target: T2, human C1s; assay: SPR; KD at pH 5.8 (1.2 mM Ca) over KD at pH 7.4 (1.2 mM Ca); remark: listed apart in the source
Protocol: as §1

human C1s [20] = target: T2, human C1s; assay: SPR (Biacore T200, 37C), Ab captured on protein A/G; pH 5.8, 3 uM Ca; remark: listed apart in the source
Procedure, shortened: as §3

Row | koff (human C1s [1]) | KD 5(+)/7(+) (human C1s [2]) | koff (human C1s [6]) | kon (human C1s [6]) | KD 5(-)/7(+) (human C1s [7]) | koff (human C1s [11]) | kon (human C1s [11]) | koff (human C1s [12]) | kon (human C1s [12]) | koff (human C1s [16]) | kon (human C1s [16]) | KD 5(-)/7(+) (human C1s [17]) | koff (human C1s [18]) | kon (human C1s [18]) | KD 5(+)/7(+) (human C1s [19]) | further results | Binder
1 | 0.00204 s⁻¹ | 0.2 | 0.000108 s⁻¹ | 662000 M⁻¹ s⁻¹ | 4.1 | 0.000298 s⁻¹ | 362000 M⁻¹ s⁻¹ |  |  |  |  |  |  |  |  | kon (human C1s [1]): 606000 M⁻¹ s⁻¹; KD 5(-)/7(+) (human C1s [3]): 4.1; KD 5(+)/7(+) (human C1s [4]): 0.2; koff (human C1s [5]): 0.000108 s⁻¹; kon (human C1s [5]): 662000 M⁻¹ s⁻¹; koff (human C1s [8]): 0.000298 s⁻¹; kon (human C1s [8]): 362000 M⁻¹ s⁻¹; koff (human C1s [9]): 0.000298 s⁻¹; kon (human C1s [9]): 362000 M⁻¹ s⁻¹; koff (human C1s [10]): 0.00204 s⁻¹; kon (human C1s [10]): 606000 M⁻¹ s⁻¹ | B1
2 |  |  |  |  |  |  |  | 0.000298 s⁻¹ | 362000 M⁻¹ s⁻¹ | 0.000108 s⁻¹ | 662000 M⁻¹ s⁻¹ | 4.09 | 0.00204 s⁻¹ | 605000 M⁻¹ s⁻¹ | 0.2 | koff (human C1s [13]): 0.000108 s⁻¹; kon (human C1s [13]): 662000 M⁻¹ s⁻¹; KD 5(-)/7(+) (human C1s [14]): 4.09; KD 5(+)/7(+) (human C1s [15]): 0.2; koff (human C1s [20]): 0.00204 s⁻¹; kon (human C1s [20]): 606000 M⁻¹ s⁻¹ | B2
3 | > 0.1 s⁻¹ | 1.2 | 0.00203 s⁻¹ | 632000 M⁻¹ s⁻¹ | 3.6 | 0.000898 s⁻¹ | 335000 M⁻¹ s⁻¹ |  |  |  |  |  |  |  |  | Kd (human C1s [1]): 9.54 nM; Kd (human C1s [6]): 3.21 nM; Kd (human C1s [11]): 2.68 nM | B3
4 |  |  |  |  |  |  |  | 0.000863 s⁻¹ | 446000 M⁻¹ s⁻¹ | 0.0142 s⁻¹ | 731000 M⁻¹ s⁻¹ | 2.56 | 0.00196 s⁻¹ | 396000 M⁻¹ s⁻¹ | 10.1 |  | B4
